Reference: the supplement of paper PMC9732359
± gives the uncertainty stated by the source.

Experiment: protein stability index of a GFP-peptide fusion (yeast GPS) (PSI 1-4); higher = more stable; sorted into four equal gates, so the index is relative within each strain
Settings: doa10∆
Summary of the method: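 Peptides tiling yeast proteins in 17-residue segments were fused downstream of GFP, with Cherry expressed from the same plasmid. As a pooled library in yeast, mid-log cultures grown in leucine-free medium were sorted into four equal gates by GFP/Cherry fluorescence ratio. Gate plasmids were PCR-amplified and Illumina-sequenced, and barcodes linked reads to strains. Each peptide received a protein stability index equal to the sum of each gate's read frequency times its gate number.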

| Sequence | protein stability index |
| --- | --- |
| SLISVLEASLNSITKDN [YJL039C/NUP192] | 2.46 ± 0.052 |
| SLKCTDPYELKGEVVLV [ITC1] | 2.59 ± 0.2 |

Same assay, conditions: pdr5∆

| Sequence | protein stability index |
| --- | --- |
| SALELVGQLNKVVDQLF [RPN6] | 2.98 ± 0.065 |
| SASFSLKNGDKPHMLKF [RPL6A] | 1.84 ± 0.055 |
| SASLFKQRKNPRRIAWT [RPL24A] | 2.9 ± 0.097 |
| SASSLVITALKEPPRDR [RPL12A] | 2.97 ± 0.074 |
| SATPNAAAFSQQQNASS [GAL11] | 3.1 ± 0.054 |
| SATSTTEQTKSKNPLSL [YLR335W/NUP2] | 3.01 ± 0.047 |
| SCHGHFGHLKLALPVFH [RPO31] | 1.4 ± 0.057 |
| SDDIAENDNLDNVSKNA [YCG1] | 3.34 ± 0.14 |
| SDEEESVLDEQEQYQTN [SNU114] | 3.25 ± 0.079 |
| SDIVLDKKVTLITSEMF [SIN4] | 1.92 ± 0.13 |
| SDKDATTDGKNDDEEEE [RPN1] | 3.33 ± 0.26 |
| SDKESNAYGFIEWCSRC [YJL039C/NUP192] | 2.79 ± 0.067 |
| SDKQRRLLAKDAMIAQR [DIS3] | 2.48 ± 0.049 |
| SDLLVAPPLENENSNCL [YML103C/NUP188] | 3.28 ± 0.1 |
| SDNISRKYEISFGKIYV [RPB2] | 3.32 ± 0.073 |
| SDNSEEEEVDIDMDKLN [RRP43] | 3.25 ± 0.071 |
| SDNVYLKLLVKLYTFLA [RPL18A] | 1.99 ± 0.099 |
| SDPESERPAIEFETPTF [RPN14] | 3.11 ± 0.055 |
| SDSNANAAVAGVANTDT [SWI3] | 3.33 ± 0.07 |
| SDSSKPAFSFGTKSNEK [YJL041W/NSP1] | 2.19 ± 0.058 |
| SDTLKEFKIEQNNEQNP [YDL116W/NUP84] | 3.01 ± 0.15 |
| SDVSDFEGWGHEYIRHL [RPN1] | 3.09 ± 0.14 |
| SEDHSFRKIKLRVDEVQ [RPS1A] | 3.16 ± 0.11 |
| SEDHSFRKVKLRVDEVQ [RPS1B] | 2.96 ± 0.15 |
| SEEINQYVTQIEQEKQE [PRE6] | 1.76 ± 0.063 |

| Sequence | protein stability index |
| --- | --- |
| SEKNKRQSKSSGKSNTS [ITC1] | 3.31 ± 0.071 |
| SENAPSASSKEFNFTNL [YAR002W/NUP60] | 2.94 ± 0.062 |
| SENRNNIKSSISNGNLA [YOR098C/NUP1] | 3.65 ± 0.24 |
| SEQKMKEDADLKRMEIL [SIR4] | 3.34 ± 0.11 |
| SERDSKDRYINGDKKVD [YMR129W/POM152] | 3.11 ± 0.092 |
| SETPLQKTVNLKNIMKV [RPN4] | 2.6 ± 0.085 |
| SETREKELESIDVLLEQ [RPB4] | 3.11 ± 0.096 |
| SEVANNGLIISWSNGKI [RRP42] | 1.66 ± 0.054 |
| SEYKVAFPHLYNSRPRS [PRP8] | 2.66 ± 0.072 |
| SFAKLVPCEGKDVTQGL [SMC2] | 2.07 ± 0.088 |
| SFATATCVTCHWNLPGE [SIR2] | 1.97 ± 0.11 |
| SFDVAISTACPRLDDVV [SMC4] | 3.34 ± 0.051 |
| SFFHQSNMQKSLLPYYH [RPN3] | 1.67 ± 0.041 |
| SFGNREEFINKLVKAMN [RPL7B] | 1.94 ± 0.17 |
| SFGNREEFINKLVKSMN [RPL7A] | 2.6 ± 0.11 |
| SFLEGSKALNSILESSM [RGR1] | 1.59 ± 0.1 |
| SFLESVIRDSVTYTEHA [HHF1] | 2.29 ± 0.064 |
| SFLGYLRYVKQIEGPFL [ISW2] | 2.42 ± 0.046 |
| SFPILDQCVGQVGLNFE [YMR129W/POM152] | 2.96 ± 0.11 |
| SFRIKQKMAKAKKQNRP [RPL39] | 2.78 ± 0.097 |
| SFSLTTFSPSGKLGQID [PRE8] | 2.67 ± 0.1 |
| SFSLTVSKEQFLKDADV [YJL039C/NUP192] | 1.45 ± 0.056 |
| SFTLLNQLSQTNKLLFK [NUT1] | 2.35 ± 0.055 |
| SFTYELKQHNQNNLPPN [BRR2] | 3.21 ± 0.087 |
| SFVFGQAAAKPSLEKSS [YLR335W/NUP2] | 2.5 ± 0.1 |

| Sequence | protein stability index |
| --- | --- |
| SGEDTNVGLPILKSLKN [YOR098C/NUP1] | 3.16 ± 0.13 |
| SGGGDSEVQRTMLELLN [RPT6] | 2.42 ± 0.19 |
| SGGNNTATIINNESSDD [PCI8] | 2.65 ± 0.087 |
| SGHDDLVHDVVYDFYGR [YGL100W/SEH1] | 2.75 ± 0.067 |
| SGKARICIVGGYDDFQE [FAS2] | 2.24 ± 0.1 |
| SGMGPDYRVLVDKSRKV [PRE8] | 2.21 ± 0.19 |
| SGQTPVQSKARYTVRTF [RPL11A] | 2.06 ± 0.081 |
| SHDKKTKCSTVVKASEL [SRP14] | 3.46 ± 0.22 |
| SHSLALNEITNSKVNKL [DSN1] | 2.57 ± 0.04 |
| SHTDQPANVLLVQSLND [NNF1] | 2.16 ± 0.083 |
| SIFAMGLCGAGTNNARL [RPN1] | 1.27 ± 0.043 |
| SIFEDAIKELNYNRIAK [NUT1] | 3.12 ± 0.19 |
| SIGSDILTAEKMRGNGN [RRP4] | 3.39 ± 0.09 |
| SIIGNKNNNYTWEECVF [REC8] | 2.62 ± 0.23 |
| SILDDIKLSLKDKTKNI [SMC4] | 2.94 ± 0.059 |
| SILEEKIAVLNNDKREI [SMC1] | 3.38 ± 0.057 |
| SILGKFCPIVEEIVSNS [YCS4] | 1.51 ± 0.12 |
| SIMPDLYFYRNPEEVEQ [RPS0B] | 2.95 ± 0.077 |
| SIMVELKLPLEINYAFS [SIR3] | 1.64 ± 0.064 |
| SINGGIVVAMTGKDCVA [PUP3] | 2.39 ± 0.21 |
| SIPNLFPTDLEIFQLFT [SWI1] | 2.22 ± 0.12 |
| SIVEECDARFDEKTIEE [RPC17] | 3.05 ± 0.088 |
| SIVHINSQERVQDLGSA [SIR2] | 3.14 ± 0.064 |
| SKALLREISNFSKGDAD [SRP72] | 3.41 ± 0.21 |
| SKAQQKTAEQVAAERAA [RPL7A] | 2.88 ± 0.052 |

| Sequence | protein stability index |
| --- | --- |
| SKASMQKEQNVNNRDSE [YCS4] | 2.98 ± 0.067 |
| SKDGLPNKVKTEDIRIR [RRP6] | 2.91 ± 0.076 |
| SKDVQQIDYKLESFQAV [RPS7A] | 3.06 ± 0.059 |
| SKEDYETLKRDRKQSQA [ARP7] | 2.9 ± 0.098 |
| SKEETVDFIKHSLSQAI [PRE3] | 2.65 ± 0.063 |
| SKEFSAYVSGLFEIYRD [YJR042W/NUP85] | 2.75 ± 0.15 |
| SKELRAQYGIKALPIRR [RPL26A] | 3.41 ± 0.17 |
| SKKETKLQENRTLLTEE [SMC2] | 3.23 ± 0.24 |
| SKKGSLENNIREFPEYF [RPL10] | 3.23 ± 0.084 |
| SKKISNTAAALVSLLDE [YAR002W/NUP60] | 2.67 ± 0.086 |
| SKKIVPSPKKVAIDQDK [SIR4] | 2.91 ± 0.066 |
| SKKRQAEKLVPLPICHA [YML031W/NDC1] | 2.5 ± 0.049 |
| SKLLVPQKNVKIQVVDR [PRE10] | 2.84 ± 0.049 |
| SKMSDESFAELMTKLNS [RPC17] | 3.67 ± 0.12 |
| SKQVTDYYQSIYAKYGA [FAS2] | 2.67 ± 0.052 |
| SKRSKIDIINKLILHAI [YML103C/NUP188] | 1.23 ± 0.11 |
| SKSPSEWQDIIHQREQE [CSE2] | 3.31 ± 0.12 |
| SKTWETYEMRIHKRYID [RPS20] | 3 ± 0.091 |
| SKVTVPPSKHSTLTLSD [ESC2] | 3.09 ± 0.13 |
| SKYCEKSLPLLITVMEK [YCS4] | 1.86 ± 0.048 |
| SKYLIKQIDIPNFNVEI [ECM29] | 2.01 ± 0.091 |
| SLAVRSLQDRSSLVRRN [YCS4] | 2.71 ± 0.047 |
| SLFHTAVSVANGFMHAG [RPN2] | 1.51 ± 0.077 |
